In paper PMC9154775:
pKd: −log10 of the molar value.

Biological target: hC3nb1-K57-ScFc (llama | bovine)
Experiment: SPR

Work on human Complement C3 (natural protein) yielded a pKd of 8.43.
